Our source for the Kd values is article PMC4545750.

In this experiment the target is Krimper Tudor2 domain (562-746) (D. melanogaster) (UniProt A1ZAC4). Description: ITC. In general terms: Isothermal titration calorimetry measures the heat released or taken up as one component is titrated into another.
Chain of UniProt A1ZAC4 (A1ZAC4 562-746): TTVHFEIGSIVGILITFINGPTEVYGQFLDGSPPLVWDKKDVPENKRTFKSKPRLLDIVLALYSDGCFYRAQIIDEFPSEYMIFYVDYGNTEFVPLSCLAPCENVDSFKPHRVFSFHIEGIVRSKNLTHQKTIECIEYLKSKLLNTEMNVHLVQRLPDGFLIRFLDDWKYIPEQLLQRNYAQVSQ

The term Kd denotes the equilibrium constant for the complex coming apart. In turn, “Aubergine peptide (residues 6 to 18) with symmetrically di-methylated arginine 11 (from UniProt O76922 6-18)” yielded a Kd of 16.3 µM.
“Aubergine peptide (residues 6 to 18) with symmetrically di-methylated arginine 15 (from UniProt O76922 6-18)” gave a Kd of 4.1 µM.
